T1: human IL-18BP (human, UniProt O95998 31-194)
T1 construct: UniProt printed as 095998; also called hIL-18BP
T1 sequence: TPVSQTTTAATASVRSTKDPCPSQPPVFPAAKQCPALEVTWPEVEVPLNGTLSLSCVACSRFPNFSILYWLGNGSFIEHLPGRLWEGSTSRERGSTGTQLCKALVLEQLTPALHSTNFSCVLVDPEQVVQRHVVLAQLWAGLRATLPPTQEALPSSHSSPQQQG

B1: SA301a HC-S54M (antibody, name in Kabat numbering, V domains shown)
VH: QVQLQESGPGLVKPSQTLSLTCTVSGYSITSDYNSHWIRQPPGKGLEWIGYIHYMGSTNYNPSLKSRVTISRDTSKNQFSLKLSSVTAADTAVYYCARNYGSIYVNYFDYWGQGTLVTVSS
VL: EIVLTQSPATLSLSPGERATLSCSASSSVSYMYWYQQKPGQAPRPLIYRTSNLASGIPARFSGSGSGTDFTLTISSLEPEDFAVYYCQQYHSYPTFGGGTKVEIK
notes: IgG1 kappa
B2: SA301a HC-Y53L (antibody, name in Kabat numbering, V domains shown)
VH: QVQLQESGPGLVKPSQTLSLTCTVSGYSITSDYNSHWIRQPPGKGLEWIGYIHLSGSTNYNPSLKSRVTISRDTSKNQFSLKLSSVTAADTAVYYCARNYGSIYVNYFDYWGQGTLVTVSS
VL: EIVLTQSPATLSLSPGERATLSCSASSSVSYMYWYQQKPGQAPRPLIYRTSNLASGIPARFSGSGSGTDFTLTISSLEPEDFAVYYCQQYHSYPTFGGGTKVEIK
notes: IgG1 kappa
B3: SA301a HC-Y53K (antibody, name in Kabat numbering, V domains shown)
VH: QVQLQESGPGLVKPSQTLSLTCTVSGYSITSDYNSHWIRQPPGKGLEWIGYIHKSGSTNYNPSLKSRVTISRDTSKNQFSLKLSSVTAADTAVYYCARNYGSIYVNYFDYWGQGTLVTVSS
VL: EIVLTQSPATLSLSPGERATLSCSASSSVSYMYWYQQKPGQAPRPLIYRTSNLASGIPARFSGSGSGTDFTLTISSLEPEDFAVYYCQQYHSYPTFGGGTKVEIK
notes: IgG1 kappa
B4: SA301a HC-Y53P (antibody, name in Kabat numbering, V domains shown)
VH: QVQLQESGPGLVKPSQTLSLTCTVSGYSITSDYNSHWIRQPPGKGLEWIGYIHPSGSTNYNPSLKSRVTISRDTSKNQFSLKLSSVTAADTAVYYCARNYGSIYVNYFDYWGQGTLVTVSS
VL: EIVLTQSPATLSLSPGERATLSCSASSSVSYMYWYQQKPGQAPRPLIYRTSNLASGIPARFSGSGSGTDFTLTISSLEPEDFAVYYCQQYHSYPTFGGGTKVEIK
notes: IgG1 kappa
B5: SA301a HC-Y53H (antibody, name in Kabat numbering, V domains shown)
VH: QVQLQESGPGLVKPSQTLSLTCTVSGYSITSDYNSHWIRQPPGKGLEWIGYIHHSGSTNYNPSLKSRVTISRDTSKNQFSLKLSSVTAADTAVYYCARNYGSIYVNYFDYWGQGTLVTVSS
VL: EIVLTQSPATLSLSPGERATLSCSASSSVSYMYWYQQKPGQAPRPLIYRTSNLASGIPARFSGSGSGTDFTLTISSLEPEDFAVYYCQQYHSYPTFGGGTKVEIK
notes: IgG1 kappa
B6: SA301a HC-Y53Q (antibody, name in Kabat numbering, V domains shown)
VH: QVQLQESGPGLVKPSQTLSLTCTVSGYSITSDYNSHWIRQPPGKGLEWIGYIHQSGSTNYNPSLKSRVTISRDTSKNQFSLKLSSVTAADTAVYYCARNYGSIYVNYFDYWGQGTLVTVSS
VL: EIVLTQSPATLSLSPGERATLSCSASSSVSYMYWYQQKPGQAPRPLIYRTSNLASGIPARFSGSGSGTDFTLTISSLEPEDFAVYYCQQYHSYPTFGGGTKVEIK
notes: IgG1 kappa
B7: SA301a HC-Y53A (antibody, name in Kabat numbering, V domains shown)
VH: QVQLQESGPGLVKPSQTLSLTCTVSGYSITSDYNSHWIRQPPGKGLEWIGYIHASGSTNYNPSLKSRVTISRDTSKNQFSLKLSSVTAADTAVYYCARNYGSIYVNYFDYWGQGTLVTVSS
VL: EIVLTQSPATLSLSPGERATLSCSASSSVSYMYWYQQKPGQAPRPLIYRTSNLASGIPARFSGSGSGTDFTLTISSLEPEDFAVYYCQQYHSYPTFGGGTKVEIK
notes: IgG1 kappa
B8: SA301a HC-S54N (antibody, name in Kabat numbering, V domains shown)
VH: QVQLQESGPGLVKPSQTLSLTCTVSGYSITSDYNSHWIRQPPGKGLEWIGYIHYNGSTNYNPSLKSRVTISRDTSKNQFSLKLSSVTAADTAVYYCARNYGSIYVNYFDYWGQGTLVTVSS
VL: EIVLTQSPATLSLSPGERATLSCSASSSVSYMYWYQQKPGQAPRPLIYRTSNLASGIPARFSGSGSGTDFTLTISSLEPEDFAVYYCQQYHSYPTFGGGTKVEIK
notes: IgG1 kappa
B9: SA301a HC-S54R (antibody, name in Kabat numbering, V domains shown)
VH: QVQLQESGPGLVKPSQTLSLTCTVSGYSITSDYNSHWIRQPPGKGLEWIGYIHYRGSTNYNPSLKSRVTISRDTSKNQFSLKLSSVTAADTAVYYCARNYGSIYVNYFDYWGQGTLVTVSS
VL: EIVLTQSPATLSLSPGERATLSCSASSSVSYMYWYQQKPGQAPRPLIYRTSNLASGIPARFSGSGSGTDFTLTISSLEPEDFAVYYCQQYHSYPTFGGGTKVEIK
notes: IgG1 kappa
B10: SA301a HC-S54Q (antibody, name in Kabat numbering, V domains shown)
VH: QVQLQESGPGLVKPSQTLSLTCTVSGYSITSDYNSHWIRQPPGKGLEWIGYIHYQGSTNYNPSLKSRVTISRDTSKNQFSLKLSSVTAADTAVYYCARNYGSIYVNYFDYWGQGTLVTVSS
VL: EIVLTQSPATLSLSPGERATLSCSASSSVSYMYWYQQKPGQAPRPLIYRTSNLASGIPARFSGSGSGTDFTLTISSLEPEDFAVYYCQQYHSYPTFGGGTKVEIK
notes: IgG1 kappa
B11: SA301a HC-Y53R (antibody, name in Kabat numbering, V domains shown)
VH: QVQLQESGPGLVKPSQTLSLTCTVSGYSITSDYNSHWIRQPPGKGLEWIGYIHRSGSTNYNPSLKSRVTISRDTSKNQFSLKLSSVTAADTAVYYCARNYGSIYVNYFDYWGQGTLVTVSS
VL: EIVLTQSPATLSLSPGERATLSCSASSSVSYMYWYQQKPGQAPRPLIYRTSNLASGIPARFSGSGSGTDFTLTISSLEPEDFAVYYCQQYHSYPTFGGGTKVEIK
notes: IgG1 kappa
B12: SA301a HC-Y53I (antibody, name in Kabat numbering, V domains shown)
VH: QVQLQESGPGLVKPSQTLSLTCTVSGYSITSDYNSHWIRQPPGKGLEWIGYIHISGSTNYNPSLKSRVTISRDTSKNQFSLKLSSVTAADTAVYYCARNYGSIYVNYFDYWGQGTLVTVSS
VL: EIVLTQSPATLSLSPGERATLSCSASSSVSYMYWYQQKPGQAPRPLIYRTSNLASGIPARFSGSGSGTDFTLTISSLEPEDFAVYYCQQYHSYPTFGGGTKVEIK
notes: IgG1 kappa
B13: SA301a HC-S54V (antibody, name in Kabat numbering, V domains shown)
VH: QVQLQESGPGLVKPSQTLSLTCTVSGYSITSDYNSHWIRQPPGKGLEWIGYIHYVGSTNYNPSLKSRVTISRDTSKNQFSLKLSSVTAADTAVYYCARNYGSIYVNYFDYWGQGTLVTVSS
VL: EIVLTQSPATLSLSPGERATLSCSASSSVSYMYWYQQKPGQAPRPLIYRTSNLASGIPARFSGSGSGTDFTLTISSLEPEDFAVYYCQQYHSYPTFGGGTKVEIK
notes: IgG1 kappa
B14: SA301a HC-S54T (antibody, name in Kabat numbering, V domains shown)
VH: QVQLQESGPGLVKPSQTLSLTCTVSGYSITSDYNSHWIRQPPGKGLEWIGYIHYTGSTNYNPSLKSRVTISRDTSKNQFSLKLSSVTAADTAVYYCARNYGSIYVNYFDYWGQGTLVTVSS
VL: EIVLTQSPATLSLSPGERATLSCSASSSVSYMYWYQQKPGQAPRPLIYRTSNLASGIPARFSGSGSGTDFTLTISSLEPEDFAVYYCQQYHSYPTFGGGTKVEIK
notes: IgG1 kappa
B15: SA301a HC-Y53G (antibody, name in Kabat numbering, V domains shown)
VH: QVQLQESGPGLVKPSQTLSLTCTVSGYSITSDYNSHWIRQPPGKGLEWIGYIHGSGSTNYNPSLKSRVTISRDTSKNQFSLKLSSVTAADTAVYYCARNYGSIYVNYFDYWGQGTLVTVSS
VL: EIVLTQSPATLSLSPGERATLSCSASSSVSYMYWYQQKPGQAPRPLIYRTSNLASGIPARFSGSGSGTDFTLTISSLEPEDFAVYYCQQYHSYPTFGGGTKVEIK
notes: IgG1 kappa
B16: SA301a HC-Y53E (antibody, name in Kabat numbering, V domains shown)
VH: QVQLQESGPGLVKPSQTLSLTCTVSGYSITSDYNSHWIRQPPGKGLEWIGYIHESGSTNYNPSLKSRVTISRDTSKNQFSLKLSSVTAADTAVYYCARNYGSIYVNYFDYWGQGTLVTVSS
VL: EIVLTQSPATLSLSPGERATLSCSASSSVSYMYWYQQKPGQAPRPLIYRTSNLASGIPARFSGSGSGTDFTLTISSLEPEDFAVYYCQQYHSYPTFGGGTKVEIK
notes: IgG1 kappa
B17: SA301a HC-Y53F (antibody, name in Kabat numbering, V domains shown)
VH: QVQLQESGPGLVKPSQTLSLTCTVSGYSITSDYNSHWIRQPPGKGLEWIGYIHFSGSTNYNPSLKSRVTISRDTSKNQFSLKLSSVTAADTAVYYCARNYGSIYVNYFDYWGQGTLVTVSS
VL: EIVLTQSPATLSLSPGERATLSCSASSSVSYMYWYQQKPGQAPRPLIYRTSNLASGIPARFSGSGSGTDFTLTISSLEPEDFAVYYCQQYHSYPTFGGGTKVEIK
notes: IgG1 kappa
B18: SA301a HC-Y53M (antibody, name in Kabat numbering, V domains shown)
VH: QVQLQESGPGLVKPSQTLSLTCTVSGYSITSDYNSHWIRQPPGKGLEWIGYIHMSGSTNYNPSLKSRVTISRDTSKNQFSLKLSSVTAADTAVYYCARNYGSIYVNYFDYWGQGTLVTVSS
VL: EIVLTQSPATLSLSPGERATLSCSASSSVSYMYWYQQKPGQAPRPLIYRTSNLASGIPARFSGSGSGTDFTLTISSLEPEDFAVYYCQQYHSYPTFGGGTKVEIK
notes: IgG1 kappa
B19: SA301a HC-S54Y (antibody, name in Kabat numbering, V domains shown)
VH: QVQLQESGPGLVKPSQTLSLTCTVSGYSITSDYNSHWIRQPPGKGLEWIGYIHYYGSTNYNPSLKSRVTISRDTSKNQFSLKLSSVTAADTAVYYCARNYGSIYVNYFDYWGQGTLVTVSS
VL: EIVLTQSPATLSLSPGERATLSCSASSSVSYMYWYQQKPGQAPRPLIYRTSNLASGIPARFSGSGSGTDFTLTISSLEPEDFAVYYCQQYHSYPTFGGGTKVEIK
notes: IgG1 kappa
B20: SA301a HC-Y53D (antibody, name in Kabat numbering, V domains shown)
VH: QVQLQESGPGLVKPSQTLSLTCTVSGYSITSDYNSHWIRQPPGKGLEWIGYIHDSGSTNYNPSLKSRVTISRDTSKNQFSLKLSSVTAADTAVYYCARNYGSIYVNYFDYWGQGTLVTVSS
VL: EIVLTQSPATLSLSPGERATLSCSASSSVSYMYWYQQKPGQAPRPLIYRTSNLASGIPARFSGSGSGTDFTLTISSLEPEDFAVYYCQQYHSYPTFGGGTKVEIK
notes: IgG1 kappa
B21: SA301a HC-S54P (antibody, name in Kabat numbering, V domains shown)
VH: QVQLQESGPGLVKPSQTLSLTCTVSGYSITSDYNSHWIRQPPGKGLEWIGYIHYPGSTNYNPSLKSRVTISRDTSKNQFSLKLSSVTAADTAVYYCARNYGSIYVNYFDYWGQGTLVTVSS
VL: EIVLTQSPATLSLSPGERATLSCSASSSVSYMYWYQQKPGQAPRPLIYRTSNLASGIPARFSGSGSGTDFTLTISSLEPEDFAVYYCQQYHSYPTFGGGTKVEIK
notes: IgG1 kappa

The target in the assay is T1, human IL-18BP. In words: BLI, apparent KD. On the technique in general: BLI is a label-free optical method that tracks binding on a fibre tip over time.
With B1, the Kd was found to be 1.94 nM.
For B2, the Kd was determined as 2.42 nM.
Then B3, with 3.16 nM.
Then B4, with 0.38 nM; and B5, with 2.41 nM.
Then B6, with 1.81 nM; and B7, with 2.6 nM; and B8, with 0.36 nM.
In the case of B9, the Kd came to 4.06 nM.
B10: the Kd was determined as 2.31 nM.
The same measure for B11: 7.08 nM.
Then B12, with 1.87 nM; and B13, with 0.55 nM.
Turning to B14, the Kd was found to be 1.14 nM.
Then B15, with 1.86 nM.
Consider B16, for which the Kd is 5.06 nM.
Regarding B17, the Kd stood at 0.39 nM.
Then B18, with 0.4 nM.
The same measure for B19: 4.66 nM; for B20: 3.2 nM.
The same measure for B21: 1.11 nM.

Source of the values: US20250368745A1 (published 2025).
